Results: paper PMC5242376 (Science signaling, 2016)
Each block holds one binder with its values, some of them ahead of it.

Experiments:
[1] = molecular target: T1, His-tagged MuSK ectodomain (UniProt Q61006 22-494); assay: SPR
T1 sequence (looked up): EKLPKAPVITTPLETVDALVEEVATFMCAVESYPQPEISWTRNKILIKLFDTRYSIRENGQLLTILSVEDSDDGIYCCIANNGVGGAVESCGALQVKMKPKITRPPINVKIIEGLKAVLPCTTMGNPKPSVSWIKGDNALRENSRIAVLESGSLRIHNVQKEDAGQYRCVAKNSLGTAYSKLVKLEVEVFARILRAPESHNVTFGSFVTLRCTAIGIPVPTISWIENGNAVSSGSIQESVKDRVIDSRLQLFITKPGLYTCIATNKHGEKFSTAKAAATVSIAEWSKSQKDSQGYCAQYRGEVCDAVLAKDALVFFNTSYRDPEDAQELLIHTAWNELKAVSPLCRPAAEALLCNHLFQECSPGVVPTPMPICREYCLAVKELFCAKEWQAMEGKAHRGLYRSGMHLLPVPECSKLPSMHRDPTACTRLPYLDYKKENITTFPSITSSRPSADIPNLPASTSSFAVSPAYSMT

[2] = molecular target: T2, full-length Fc-fusion MuSK ectodomain (UniProt Q61006 22-494); assay: ELISA
T2 sequence (looked up): T1 sequence (looked up)

Kd [1]: 11.8 nM
B1: recombinant human BMP7 (ligand, UniProt P18075 293-431, looked up)
chain: STGSKQRSQNRSKTPKNQEALRMANVAENSSSDQRQACKKHELYVSFRDLGWQDWIIAPEGYAAYYCEGECAFPLNSYMNATNHAIVQTLVHFINPETVPKPCCAPTQLNAISVLYFDDSSNVILKKYRNMVVRACGCH

EC50 [2]: ~30 nM
B2: recombinant human BMP4 (ligand, UniProt P12644 293-408, looked up)
chain: SPKHHSQRARKKNKNCRRHSLYVDFSDVGWNDWIVAPPGYQAFYCHGDCPFPLADHLNSTNHAIVQTLVNSVNSSIPKACCVPTELSAISMLYLDEYDKVVLKNYQEMVVEGCGCR

Kd [1]: 5.6 nM
B3: recombinant human BMP2 (ligand, UniProt P12643 283-396, looked up)
chain: QAKHKQRKRLKSSCKRHPLYVDFSDVGWNDWIVAPPGYHAFYCHGECPFPLADHLNSTNHAIVQTLVNSVNSKIPKACCVPTELSAISMLYLDENEKVVLKNYQDMVVEGCGCR
